The source of these data is patent US20240279304A1, “DSG2 COMPOSITIONS AND METHODS” (Arvada Therapeutics, Inc., priority 2021, published 2024).

The target of series [1] is anti-DSG2 antibody. Kind of series: electrochemical immunoassay; fusion polypeptide at 5 mg/mL (so in the source), antibody at 500 ng/mL.
The nature of series [2]: Dynamic light scattering (DLS) of DSG2 fusion polypeptides. Type of series: physicochemical. The settings on record: average polymer distribution index. The source says: 6 candidates were compared to the reference sample.
Series [3] deals with anti-DSG2 antibody. Briefly: anti-DSG2 antibody meso scale discovery (MSD) assay, blocking of anti-DSG2 antibody. The settings on record: for % inhibition: fraction C (table title). Format: binding. On the procedure:
(§1) The DSG2 fusion polypeptides were tested for the ability to block anti-DSG2 antibody by an anti-DSG2 antibody meso scale discovery (MSD) assay. […] The DSG2 fusion polypeptides were subjected to size exclusion chromatography and different elution fractions were examined. […] As shown in Table 7 and FIG. 1B, FIG. 1C, and FIG. 1D, enriching for fraction C improved the ability of the DSG2 fusion polypeptides to block ARVC patient serum.

In series [4] the target is anti-DSG2 antibody. Briefly: anti-DSG2 antibody MSD assay; inhibition by the fusion polypeptide (fraction C per table title); antibody at 1000 ng/mL.
For series [5], the target named is anti-DSG2 antibody. Briefly: anti-DSG2 antibody MSD assay; inhibition by the fusion polypeptide (fraction C per table title); antibody at 200 ng/mL.
The test system of series [6] is ARVC serum (anti-DSG2 antibodies in serum obtained from ARVC patients). Briefly: anti-DSG2 antibody MSD assay, blocking of ARVC patient serum. Type of series: binding, human. Also on record: % inhibition: concentration or dose not given beside the values. The settings on record: for effect of enriching for fraction C on ability to block ARVC patient serum (in words): fraction C vs whole preparation, FIG. 1B-1D; for % inhibition: fraction C (table title). On the procedure:
as §1
ARVC diagnosis is based on complex tool known as Task Force Criteria, which can lead to varying levels of conviction about ARVC diagnosis. The utility of DSG2 antibodies as an indicator of ARVC disease state and severity was explored. Approximately 50 cc serum was collected from diagnosed ARVC patients. A total of 10 ARVC patients and 5 healthy controls were used for the analysis. ARVC serum samples were separated into more robust diagnosis and less robust diagnosis, based on available data in the patient medical records and anti-DSG2 antibody levels were compared using an anti-DSG2 antibody meso scale discovery (MSD)-based assay.

[7] abbreviates: sample: Anti-DSG2 antibody (200 ng/mL) control.
The mark [8] stands for this setting: sample: Anti-DSG2 antibody (1000 ng/mL) control.

Take “DSG2-GGGGS-(IgG4)Fc (DSG2FP#7) (Fc fusion)”: the % inhibition (as a rule, the relative decrease from the control value, in per cent) with anti-DSG2 antibody [1] is above 80%.

As for “DSG2FP#5: IgG1 Fc 104-330 (L234A, L235A, P329G; SEQ ID NO: 31); DSG2 extracellular domain (50-609 of SEQ ID NO: 1)”, the PDI in series [2] turned out to be 0.31. Moreover, the “ability to bind to and block anti-DSG2 antibody (in words)” value (“ability to bind” for short) with anti-DSG2 antibody [3] is “able to bind to and block anti-DSG2 antibodies”.

For the molecule “DSG2-GGGGS-(IgG1)Fc (DSG2FP#3) (Fc fusion)”, the % inhibition in the series with anti-DSG2 antibody [4] came out at 85.5%; in the series with anti-DSG2 antibody [5], 61.2%.

Regarding DSG2-(IgG1)Fc (DSG2FP#2) (Fc fusion), the % inhibition in the series with anti-DSG2 antibody [4] turned out to be 81.6%; with anti-DSG2 antibody [5], 54.5%.

The molecule “DSG2FP#7: DSG2 extracellular domain (50-609 of SEQ ID NO: 1); GGGGS peptide linker; IgG4 Fc domain” displayed a PDI in series [2] of 0.30. Further, the “ability to bind” value in the series on anti-DSG2 antibody [3] was “able to bind to and block anti-DSG2 antibodies”.

For DSG2-(IgG4)Fc (DSG2FP#6) (Fc fusion), the % inhibition with anti-DSG2 antibody [1] was above 80%.

Regarding “DSG2-EAAAK-(IgG1)Fc (DSG2FP#4) (Fc fusion)”, the % inhibition came out at 85.5% in the series with anti-DSG2 antibody [4] and 61.2% in the series with anti-DSG2 antibody [5].

The molecule “DSG2FP#6: DSG2 extracellular domain (50-609 of SEQ ID NO: 1); IgG4 Fc 99-327 (S228P, L235E, P329G) SEQ ID NO: 32” showed a PDI in series [2] of 0.32. For the same molecule, the “ability to bind” value in the series on anti-DSG2 antibody [3] was “able to bind to and block anti-DSG2 antibodies”.

B1: DSG2FP#2: DSG2 extracellular domain (50-609 of SEQ ID NO: 1); IgG1 Fc 104-330 (L234A, L235A, P329G) SEQ ID NO: 31 (protein)
chain: AWITAPVALREGEDLSKKNPIAKIHSDLAEERGLKITYKYTGKGITEPPFGIFVFNKDTGELNVTSILDREETPFFLLTGYALDARGNNVEKPLELRIKVLDINDNEPVFTQDVFVGSVEELSAAHTLVMKINATDADEPNTLNSKISYRIVSLEPAYPPVFYLNKDTGEIYTTSVTLDREEHSSYTLTVEARDGNGEVTDKPVKQAQVQIRILDVNDNIPVVENKVLEGMVEENQVNVEVTRIKVFDADEIGSDNWLANFTFASGNEGGYFHIETDAQTNEGIVTLIKEVDYEEMKNLDFSVIVANKAAFHKSIRSKYKPTPIPIKVKVKNVKEGIHFKSSVISIYVSESMDRSSKGQIIGNFQAFDEDTGLPAHARYVKLEDRDNWISVDSVTSEIKLAKLPDFESRYVQNGTYTVKIVAISEDYPRKTITGTVLINVEDINDNCPTLIEPVQTICHDAEYVNVTAEDLDGHPNSGPFSFSVIDKPPGMAEKWKIARQESTSVLLQQSEKKLGRSEIQFLISDNQGFSCPEKQVLTLTVCECLHGSGCREAQHDSYVGDKTHTCPPCPAPEAAGGPSVFLFPPKPKDTLMISRTPEVTCVVVDVSHEDPEVKFNWYVDGVEVHNAKTKPREEQYNSTYRVVSVLTVLHQDWLNGKEYKCKVSNKALGAPIEKTISKAKGQPREPQVYTLPPSRDELTKNQVSLTCLVKGFYPSDIAVEWESNGQPENNYKTTPPVLDSDGSFFLYSKLTVDKSRWQQGNVFSCSVMHEALHNHYTQKSLSLSPGK
As to B1, the “effect of enriching for fraction C on ability to block ARVC patient serum (in words)” value in series [6] was “more pronounced”. Moreover, the “% inhibition” value is recorded as 3.0% in series [6] (sample: ARVC serum 1); 33.5% in series [6] (sample: ARVC serum 2); 26.0% in series [6] (sample: ARVC serum 3); 51.1% in series [6] (sample: ARVC serum 4); 41.8% in series [6] (sample: ARVC serum 5); 54.5% in the series with anti-DSG2 antibody [3] (setting [7]). The “% inhibition” value with anti-DSG2 antibody [3] (setting [8]) was 81.6%; with anti-DSG2 antibody [3] (sample: no antibody control), −19.1%. The molecule further registered a PDI in series [2] of 0.32. Besides, in the series with anti-DSG2 antibody [3], the “ability to bind” value is “able to bind to and block anti-DSG2 antibodies”.

B2: DSG2FP#3: DSG2 extracellular domain (50-609); linker GGGGS; IgG1 Fc 104-330 (L234A, L235A, P329G) SEQ ID NO: 31 (protein)
chain: AWITAPVALREGEDLSKKNPIAKIHSDLAEERGLKITYKYTGKGITEPPFGIFVFNKDTGELNVTSILDREETPFFLLTGYALDARGNNVEKPLELRIKVLDINDNEPVFTQDVFVGSVEELSAAHTLVMKINATDADEPNTLNSKISYRIVSLEPAYPPVFYLNKDTGEIYTTSVTLDREEHSSYTLTVEARDGNGEVTDKPVKQAQVQIRILDVNDNIPVVENKVLEGMVEENQVNVEVTRIKVFDADEIGSDNWLANFTFASGNEGGYFHIETDAQTNEGIVTLIKEVDYEEMKNLDFSVIVANKAAFHKSIRSKYKPTPIPIKVKVKNVKEGIHFKSSVISIYVSESMDRSSKGQIIGNFQAFDEDTGLPAHARYVKLEDRDNWISVDSVTSEIKLAKLPDFESRYVQNGTYTVKIVAISEDYPRKTITGTVLINVEDINDNCPTLIEPVQTICHDAEYVNVTAEDLDGHPNSGPFSFSVIDKPPGMAEKWKIARQESTSVLLQQSEKKLGRSEIQFLISDNQGFSCPEKQVLTLTVCECLHGSGCREAQHDSYVGGGGGGSDKTHTCPPCPAPEAAGGPSVFLFPPKPKDTLMISRTPEVTCVVVDVSHEDPEVKFNWYVDGVEVHNAKTKPREEQYNSTYRVVSVLTVLHQDWLNGKEYKCKVSNKALGAPIEKTISKAKGQPREPQVYTLPPSRDELTKNQVSLTCLVKGFYPSDIAVEWESNGQPENNYKTTPPVLDSDGSFFLYSKLTVDKSRWQQGNVFSCSVMHEALHNHYTQKSLSLSPGK
Take B2: the “effect of enriching for fraction C on ability to block ARVC patient serum (in words)” value in series [6] is recorded as “more pronounced”. Further, the “% inhibition” value was 9.2% in series [6] (sample: ARVC serum 1); 27.6% in series [6] (sample: ARVC serum 2); 15.5% in series [6] (sample: ARVC serum 3); −5.6% in series [6] (sample: ARVC serum 4); 20.6% in series [6] (sample: ARVC serum 5); 61.2% in the series on anti-DSG2 antibody [3] (setting [7]). Further, the results for the “% inhibition” value in the series on anti-DSG2 antibody [3] (setting [8]) and in the series on anti-DSG2 antibody [3] (sample: no antibody control) were 85.5% and 0.7%, respectively. In series [2], this molecule had a PDI of 0.30. Moreover, the “ability to bind” value in the series on anti-DSG2 antibody [3] was “able to bind to and block anti-DSG2 antibodies”.

B3: DSG2FP#4: DSG2 extracellular domain (50-609); linker EAAAK; IgG1 Fc 104-330 (L234A, L235A, P329G) SEQ ID NO: 31 (protein)
chain: AWITAPVALREGEDLSKKNPIAKIHSDLAEERGLKITYKYTGKGITEPPFGIFVFNKDTGELNVTSILDREETPFFLLTGYALDARGNNVEKPLELRIKVLDINDNEPVFTQDVFVGSVEELSAAHTLVMKINATDADEPNTLNSKISYRIVSLEPAYPPVFYLNKDTGEIYTTSVTLDREEHSSYTLTVEARDGNGEVTDKPVKQAQVQIRILDVNDNIPVVENKVLEGMVEENQVNVEVTRIKVFDADEIGSDNWLANFTFASGNEGGYFHIETDAQTNEGIVTLIKEVDYEEMKNLDFSVIVANKAAFHKSIRSKYKPTPIPIKVKVKNVKEGIHFKSSVISIYVSESMDRSSKGQIIGNFQAFDEDTGLPAHARYVKLEDRDNWISVDSVTSEIKLAKLPDFESRYVQNGTYTVKIVAISEDYPRKTITGTVLINVEDINDNCPTLIEPVQTICHDAEYVNVTAEDLDGHPNSGPFSFSVIDKPPGMAEKWKIARQESTSVLLQQSEKKLGRSEIQFLISDNQGFSCPEKQVLTLTVCECLHGSGCREAQHDSYVGEAAAKDKTHTCPPCPAPEAAGGPSVFLFPPKPKDTLMISRTPEVTCVVVDVSHEDPEVKFNWYVDGVEVHNAKTKPREEQYNSTYRVVSVLTVLHQDWLNGKEYKCKVSNKALGAPIEKTISKAKGQPREPQVYTLPPSRDELTKNQVSLTCLVKGFYPSDIAVEWESNGQPENNYKTTPPVLDSDGSFFLYSKLTVDKSRWQQGNVFSCSVMHEALHNHYTQKSLSLSPGK
On to B3, for which the “% inhibition” value in series [6] (sample: ARVC serum 1) is 6.0%; in series [6] (sample: ARVC serum 2) it was 9.2%; in series [6] (sample: ARVC serum 3) it was −8.0%; in series [6] (sample: ARVC serum 4), 0.8%; in series [6] (sample: ARVC serum 5), 2.0%; in the series with anti-DSG2 antibody [3] (setting [7]) it was 61.2%. For the same molecule, the results for the “% inhibition” value in the series on anti-DSG2 antibody [3] (setting [8]) and with anti-DSG2 antibody [3] (sample: no antibody control) were 85.5% and 0.7%, respectively. This molecule displayed a PDI in series [2] of 0.32. In addition, in the series with anti-DSG2 antibody [3], the “ability to bind” value is “able to bind to and block anti-DSG2 antibodies”.
